One block for each molecule: values may come before it.
Columns and labels:
[1] = target: bombesin receptor of PC3 cells; assay: Scatchard analysis, PC3 cells, 37C
[2] = target: bombesin receptor of PC3 cells; assay: 125I-ligand binding to PC3 cells, 37C
[3] = target: bombesin receptor of PC3 cells; assay: 125I-ligand binding to PC3 cells; with 12 µM NIF
[4] = target: bombesin receptor of PC3 cells; assay: 125I-ligand binding to PC3 cells; with 60 µM NIF
[5] = target: bombesin receptor of PC3 cells; assay: 125I-ligand binding to PC3 cells; with 12 µM SKF-96365
[6] = target: bombesin receptor of PC3 cells; assay: 125I-ligand binding to PC3 cells; with 12 µM phloretin
[7] = target: bombesin receptor of PC3 cells; assay: 125I-ligand binding to PC3 cells; with 12 µM verapamil
[8] = target: bombesin receptor of PC3 cells; assay: 125I-ligand binding to PC3 cells; with 60 µM SKF-96365
[9] = target: bombesin receptor of PC3 cells; assay: 125I-ligand binding to PC3 cells; with 60 µM phloretin
[10] = target: bombesin receptor of PC3 cells; assay: 125I-ligand binding to PC3 cells; with 60 µM verapamil
[11] = target: bombesin receptor of PC3 cells; assay: 125I-ligand binding to PC3 cells, 37C; with 12 µM NDGA
[12] = target: bombesin receptor of PC3 cells; assay: 125I-ligand binding to PC3 cells, 37C; with 60 µM NDGA
[13] = target: bombesin receptor of PC3 cells; assay: 125I-ligand binding to PC3 cells, 37C; with 12 µM MK886
[14] = target: bombesin receptor of PC3 cells; assay: 125I-ligand binding to PC3 cells, 37C; with 60 µM MK886
[15] = target: bombesin receptor of PC3 cells; assay: 125I-ligand binding to PC3 cells, 37C; with 12 µM AA-861
[16] = target: bombesin receptor of PC3 cells; assay: 125I-ligand binding to PC3 cells, 37C; with 60 µM AA-861
[17] = target: bombesin receptor of PC3 cells; assay: 125I-ligand binding to PC3 cells, 37C; with 12 µM Rev-5901
[18] = target: bombesin receptor of PC3 cells; assay: 125I-ligand binding to PC3 cells, 37C; with 60 µM Rev-5901
[19] = target: bombesin receptor of PC3 cells; assay: displacement of 125I-ligand by unlabeled ligand, PC3 cells, 37C
[20] = target: vasopressin (V1a) receptor of PC3 cells (UniProt P37288); assay: Scatchard analysis, PC3 cells, 37C
[21] = target: vasopressin (V1a) receptor of PC3 cells (UniProt P37288); assay: 125I-ligand binding to PC3 cells, 37C
[22] = target: vasopressin (V1a) receptor of PC3 cells (UniProt P37288); assay: 125I-ligand binding to PC3 cells; with 12 µM NIF
[23] = target: vasopressin (V1a) receptor of PC3 cells (UniProt P37288); assay: 125I-ligand binding to PC3 cells; with 60 µM NIF
[24] = target: vasopressin (V1a) receptor of PC3 cells (UniProt P37288); assay: 125I-ligand binding to PC3 cells; with 12 µM SKF-96365
[25] = target: vasopressin (V1a) receptor of PC3 cells (UniProt P37288); assay: 125I-ligand binding to PC3 cells; with 12 µM phloretin
[26] = target: vasopressin (V1a) receptor of PC3 cells (UniProt P37288); assay: 125I-ligand binding to PC3 cells; with 12 µM verapamil
[27] = target: vasopressin (V1a) receptor of PC3 cells (UniProt P37288); assay: 125I-ligand binding to PC3 cells; with 60 µM SKF-96365
[28] = target: vasopressin (V1a) receptor of PC3 cells (UniProt P37288); assay: 125I-ligand binding to PC3 cells; with 60 µM phloretin
[29] = target: vasopressin (V1a) receptor of PC3 cells (UniProt P37288); assay: 125I-ligand binding to PC3 cells; with 60 µM verapamil
[30] = target: vasopressin (V1a) receptor of PC3 cells (UniProt P37288); assay: 125I-ligand binding to PC3 cells, 37C; with 12 µM NDGA
[31] = target: vasopressin (V1a) receptor of PC3 cells (UniProt P37288); assay: 125I-ligand binding to PC3 cells, 37C; with 60 µM NDGA
[32] = target: vasopressin (V1a) receptor of PC3 cells (UniProt P37288); assay: 125I-ligand binding to PC3 cells, 37C; with 12 µM MK886
[33] = target: vasopressin (V1a) receptor of PC3 cells (UniProt P37288); assay: 125I-ligand binding to PC3 cells, 37C; with 60 µM MK886
[34] = target: vasopressin (V1a) receptor of PC3 cells (UniProt P37288); assay: 125I-HOLVA binding to PC3 cell membranes; with 60 µM NIF
[35] = target: vasopressin (V1a) receptor of PC3 cells (UniProt P37288); assay: 125I-ligand binding to PC3 cells, 37C; with 12 µM AA-861
[36] = target: vasopressin (V1a) receptor of PC3 cells (UniProt P37288); assay: 125I-ligand binding to PC3 cells, 37C; with 60 µM AA-861
[37] = target: vasopressin (V1a) receptor of PC3 cells (UniProt P37288); assay: 125I-ligand binding to PC3 cells, 37C; with 12 µM Rev-5901
[38] = target: vasopressin (V1a) receptor of PC3 cells (UniProt P37288); assay: 125I-ligand binding to PC3 cells, 37C; with 60 µM Rev-5901
[39] = target: vasopressin (V1a) receptor of PC3 cells (UniProt P37288); assay: 125I-HOLVA binding to PC3 cell membranes; with 60 µM SKF-96365
[40] = target: vasopressin (V1a) receptor of PC3 cells (UniProt P37288); assay: 125I-HOLVA binding to PC3 cell membranes; with 60 µM verapamil
[41] = target: vasopressin (V1a) receptor of PC3 cells (UniProt P37288); assay: displacement of 125I-ligand by unlabeled ligand, PC3 cells, 37C
[42] = target: T1, neurotensin receptor 1 (NTR1) of PC3 cells (UniProt P30989 1-418, limits assumed); assay: UV crosslinking on PC3 cells, immunoprecipitated NTR1; with 50 µM NDGA
T1 construct: whole, on cells; its antiserum peptide is from human NTR1; Some assays used isolated PC3 cell membranes or detergent or SDS extracts instead of live cells (see the assay field); also called NT receptor

[43] = target: T1, neurotensin receptor 1 (NTR1) of PC3 …; assay: UV crosslinking on PC3 cells, immunoprecipitated NTR1; with 50 µM MK886
[44] = target: T1, neurotensin receptor 1 (NTR1) of PC3 …; assay: UV crosslinking on PC3 cells, immunoprecipitated NTR1; with NIF against control
[45] = target: T1, neurotensin receptor 1 (NTR1) of PC3 …; assay: UV crosslinking on PC3 cells, immunoprecipitated NTR1; with phloretin against control
[46] = target: T1, neurotensin receptor 1 (NTR1) of PC3 …; assay: UV crosslinking on PC3 cells, immunoprecipitated NTR1; with verapamil against control

Chain of bombesin receptor of PC3 cells (P30550 whole entry): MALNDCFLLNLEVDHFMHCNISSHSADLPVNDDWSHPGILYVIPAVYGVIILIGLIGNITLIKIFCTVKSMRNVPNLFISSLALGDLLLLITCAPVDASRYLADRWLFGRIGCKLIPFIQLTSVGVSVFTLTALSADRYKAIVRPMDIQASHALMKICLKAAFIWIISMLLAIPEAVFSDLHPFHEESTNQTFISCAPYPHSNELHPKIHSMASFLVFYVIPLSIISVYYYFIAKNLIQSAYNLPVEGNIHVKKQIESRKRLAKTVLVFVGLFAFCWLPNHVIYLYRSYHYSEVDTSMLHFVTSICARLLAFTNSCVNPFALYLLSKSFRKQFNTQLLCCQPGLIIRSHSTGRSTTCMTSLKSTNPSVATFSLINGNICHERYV
T1 sequence (P30989 whole entry): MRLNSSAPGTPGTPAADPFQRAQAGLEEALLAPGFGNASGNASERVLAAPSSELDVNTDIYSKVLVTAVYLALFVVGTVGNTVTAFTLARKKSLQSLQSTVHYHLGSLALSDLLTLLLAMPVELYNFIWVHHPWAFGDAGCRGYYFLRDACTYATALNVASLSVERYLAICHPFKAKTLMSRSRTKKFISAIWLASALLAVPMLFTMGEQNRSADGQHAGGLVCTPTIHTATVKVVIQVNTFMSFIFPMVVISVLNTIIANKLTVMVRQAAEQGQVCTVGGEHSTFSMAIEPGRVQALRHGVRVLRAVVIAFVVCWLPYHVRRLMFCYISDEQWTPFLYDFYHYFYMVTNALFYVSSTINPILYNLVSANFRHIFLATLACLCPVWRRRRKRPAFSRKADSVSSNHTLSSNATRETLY
Chain of vasopressin (V1a) receptor of PC3 cells (P37288 whole entry): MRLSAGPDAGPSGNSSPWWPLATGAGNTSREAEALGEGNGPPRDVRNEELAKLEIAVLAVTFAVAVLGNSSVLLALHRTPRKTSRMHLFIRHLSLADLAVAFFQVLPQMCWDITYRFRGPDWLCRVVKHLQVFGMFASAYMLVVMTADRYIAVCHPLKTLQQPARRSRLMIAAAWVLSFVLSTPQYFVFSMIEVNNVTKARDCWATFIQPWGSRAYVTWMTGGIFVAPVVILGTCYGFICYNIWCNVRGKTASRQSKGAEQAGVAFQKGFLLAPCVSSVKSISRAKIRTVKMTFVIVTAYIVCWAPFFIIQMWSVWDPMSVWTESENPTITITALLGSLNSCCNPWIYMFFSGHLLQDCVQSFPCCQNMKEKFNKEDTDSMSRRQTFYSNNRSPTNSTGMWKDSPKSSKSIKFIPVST

Bmax [1]: 1020 fmol/mg
Specific Binding (% of total) [2]: 95 % of total
Specific Binding (% control) [3]: 108 % control
Specific Binding (% control) [4]: 119 % control
Specific Binding (% control) [5]: 99 % control
Specific Binding (% control) [6]: 104 % control
Specific Binding (% control) [7]: 104 % control
Specific Binding (% control) [8]: 106 % control
Specific Binding (% control) [9]: 111 % control
Specific Binding (% control) [10]: 104 % control
Specific Binding (% control) [11]: 110 % control
Specific Binding (% control) [12]: 127 % control
Specific Binding (% control) [13]: 106 % control
Specific Binding (% control) [14]: 125 % control
Specific Binding (% control) [15]: 112 % control
Specific Binding (% control) [16]: 135 % control
Specific Binding (% control) [17]: 107 % control
Specific Binding (% control) [18]: 119 % control
Ki [19]: 0.6 nM
Molecule: (Tyr 4, Nle 14)-bombesin (peptide)

Bmax [20]: 156 fmol/mg
Specific Binding (% of total) [21]: 77 % of total
Specific Binding (% control) [22]: 95 % control
Specific Binding (% control) [23]: 59 % control
Specific Binding (% control) [24]: 80 % control
Specific Binding (% control) [25]: 92 % control
Specific Binding (% control) [26]: 85 % control
Specific Binding (% control) [27]: 50 % control
Specific Binding (% control) [28]: 73 % control
Specific Binding (% control) [29]: 58 % control
Specific Binding (% control) [30]: 84 % control
Specific Binding (% control) [31]: 50 % control
Specific Binding (% control) [32]: 93 % control
Specific Binding (% control) [33]: 67 % control
Binding (% control) [34]: 90 % control
Specific Binding (% control) [35]: 87 % control
Specific Binding (% control) [36]: 57 % control
Specific Binding (% control) [37]: 68 % control
Specific Binding (% control) [38]: 42 % control
Binding (% control) [39]: 110 % control
Binding (% control) [40]: 91 % control
Ki [41]: 0.5 nM
Molecule: des-Gly-[Phaal, D-Tyr(Et)2, Lys6, Arg8]-vasopressin (HOLVA) (peptide)

fold increase in radioactivity associated with NTR1 [42]: 2.6 fold
fold increase in radioactivity associated with NTR1 [43]: 2.7 fold
fold increase in radioactivity associated with NTR1 [44]: 2.8 fold
fold increase in radioactivity associated with NTR1 [45]: 1.8 fold
fold increase in radioactivity associated with NTR1 [46]: 1.5 fold
B1: ^125I-[4-azido-Phe^6]-NT (peptide)
peptide: ELYENFPRRPYIL
modifications: 4-azido-Phe at position 6; pGlu at position 1; 125I iodinated
notes: the residue at 6 is 4-azido-phenylalanine

Reference: patent US20090203048A1 (UNIVERSITY OF MASSACHUSETTS, published 2009)
